The target of test [1] is T1, extracellular domain protein of rat MOG to which GST is added at the C-terminus (rMOG-GST) (rat).
T1 construct: whole construct entry
Put plainly: SPR Biacore T-100, antibody captured, rMOG-GST analyte. The protocol:
(§1) The antibodies were immobilized on CM5 sensor chips using a Human antibody Capture kit, and the binding abilities were evaluated using rMOG-GST produced in Example 4 as an analyte. The obtained sensorgrams were analyzed with BIA evaluation software, and the dissociation constants (KD values) were thus calculated.
Background: Surface plasmon resonance follows binding to a sensor surface in real time, without labels.

Test [2] addresses T2, human MOG (hMOG) expressed on HEK293, Expi293F or L929 cells (human, UniProt Q16653 30-247).
T2 construct: also called hMOG/HEK293; hMOG/HEK293F
T2 chain: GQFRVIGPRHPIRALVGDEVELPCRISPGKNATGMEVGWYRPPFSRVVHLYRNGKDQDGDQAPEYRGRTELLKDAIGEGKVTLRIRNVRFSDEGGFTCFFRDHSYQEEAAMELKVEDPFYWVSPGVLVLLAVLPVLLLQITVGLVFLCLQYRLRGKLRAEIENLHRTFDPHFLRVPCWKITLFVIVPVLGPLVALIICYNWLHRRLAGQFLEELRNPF
Put plainly: flow cytometry on HEK293 cells transiently expressing human MOG; antibody at 10 µg/mL, RPE-labelled goat anti-human antibody; negative control anti-AVM antibody. As for the experimental part: (§2) rMOG/HEK293F, mMOG/IEK293F, cMOG/HEK293 and hMOG/HEK293 cells were suspended in a Staining Buffer (SB) of PBS containing 0.1% NaN₃ and 1% FBS each at a concentration of 5×10⁵ cells/mL and dispensed to a round-bottom 96-well plate (manufactured by Becton Dickinson).
(§3) After centrifugation (2000 rpm, 4° C., two minutes), the supernatants were removed, and the antibodies obtained in Example 6 at 10 μg/mL were added to the pellets. After suspending the pellets, the plate was left to stand at ice temperature for 30 minutes. The supernatants were removed after further centrifugation (2000 rpm, 4° C., two minutes), and the pellets were washed with SB. Then, 1 μg/mL RPE fluorescently labeled goat anti-human antibody (manufactured by […]) was added, and the plate was incubated at ice temperature for 30 minutes.
(§4) After washing with SB, the cells were suspended in SB, and the fluorescence intensities of the cells were measured using a flow cytometer FACS CANTO II (manufactured by Becton Dickinson). As the negative control, an anti-AVM antibody was used.

Test [3] has as its target T3, rat MOG (rMOG) expressed on HEK293F cells (rat, UniProt Q63345 28-245).
T3 construct: also called rMOG/HEK293F
T3 sequence: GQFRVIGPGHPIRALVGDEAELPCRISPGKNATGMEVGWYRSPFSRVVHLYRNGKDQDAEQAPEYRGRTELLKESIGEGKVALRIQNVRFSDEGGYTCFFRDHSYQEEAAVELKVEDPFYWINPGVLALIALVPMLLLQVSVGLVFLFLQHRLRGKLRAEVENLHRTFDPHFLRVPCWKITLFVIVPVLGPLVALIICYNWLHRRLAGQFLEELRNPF
In words: flow cytometry on HEK293 cells transiently expressing rat MOG; antibody at 10 µg/mL, RPE-labelled goat anti-human antibody; negative control anti-AVM antibody. The protocol: as §2, §3, §4
(A flow cytometer gives signals particle by particle.)

The target of test [4] is T4, cynomolgus monkey MOG (cMOG) expressed on HEK293 cells (cynomolgus monkey, UniProt Q9BGS7 30-247).
T4 construct: also called cMOG/HEK293
T4 sequence: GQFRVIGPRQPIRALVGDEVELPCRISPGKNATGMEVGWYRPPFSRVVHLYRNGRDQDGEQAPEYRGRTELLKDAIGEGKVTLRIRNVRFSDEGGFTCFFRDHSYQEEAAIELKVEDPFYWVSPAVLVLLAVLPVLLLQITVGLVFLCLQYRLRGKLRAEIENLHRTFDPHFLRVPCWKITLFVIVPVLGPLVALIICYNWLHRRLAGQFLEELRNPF
In words: flow cytometry on HEK293 cells transiently expressing cynomolgus monkey MOG; antibody at 10 µg/mL, RPE-labelled goat anti-human antibody; negative control anti-AVM antibody. As for the experimental part:
as §2, §3, §4

For test [5], the target named is T1, extracellular domain protein of rat MOG …. In words: SPR as in Example 8 (antibody captured, rMOG-GST analyte). As for the experimental part:
as §1

Test [6] has the same target. Described as above. The protocol: as §1
Binding of the bispecific antibodies obtained in Example 6 and Example 16 to MOG was evaluated by the same method as that of Example 8.
The source holds these as a separate data set.

In test [7] the target is T5, extracellular domain protein of mouse MOG to which GST is added at the C-terminus (mMOG-GST) (mouse). In words: SPR, antibody captured, mMOG-GST analyte; paragraph 625: KD could not be determined as a unique value.
The target of test [8] is T6, extracellular domain protein of human MOG to which GST is added at the C-terminus (hMOG-GST) (human). Put plainly: SPR, antibody captured, hMOG-GST analyte. The protocol: as §1
The results of evaluation of the affinities to human MOG are shown in Table 14, and the results of evaluation of the affinities to mouse MOG are shown in Table 15.

Test [9] concerns the target T5, extracellular domain protein of mouse …. Put plainly: SPR, antibody captured, mMOG-GST analyte.
Test [10] addresses T6, extracellular domain protein of human …. In words: SPR, antibody captured, hMOG-GST analyte; ka outside the measurement range.
Test [11] shares this target. In words: SPR, antibody captured, hMOG-GST analyte; KD not unique (ka outside range).
For test [12], the target named is T5, extracellular domain protein of mouse …. Put plainly: SPR, antibody captured, mMOG-GST analyte; paragraph 625: ka of MOG01 scFv-hG4PE outside the measurement range.
The target in test [13] is T1, extracellular domain protein of rat MOG …. Put plainly: SPR Biacore T-100, antibody captured, rMOG-GST analyte; kd outside the measurement range. As for the experimental part:
as §1

The target is the same in test [14]. Put plainly: SPR Biacore T-100, antibody captured, rMOG-GST analyte; KD not unique (kd outside range). As for the experimental part: as §1
Test [15] addresses T4, cynomolgus monkey MOG (cMOG) expressed …. Put plainly: flow cytometry on HEK293 cells transiently expressing cynomolgus monkey MOG; RPE-labelled goat anti-human antibody; negative control anti-AVM antibody.

T5 sequence (chain, as listed by the source limits assumed): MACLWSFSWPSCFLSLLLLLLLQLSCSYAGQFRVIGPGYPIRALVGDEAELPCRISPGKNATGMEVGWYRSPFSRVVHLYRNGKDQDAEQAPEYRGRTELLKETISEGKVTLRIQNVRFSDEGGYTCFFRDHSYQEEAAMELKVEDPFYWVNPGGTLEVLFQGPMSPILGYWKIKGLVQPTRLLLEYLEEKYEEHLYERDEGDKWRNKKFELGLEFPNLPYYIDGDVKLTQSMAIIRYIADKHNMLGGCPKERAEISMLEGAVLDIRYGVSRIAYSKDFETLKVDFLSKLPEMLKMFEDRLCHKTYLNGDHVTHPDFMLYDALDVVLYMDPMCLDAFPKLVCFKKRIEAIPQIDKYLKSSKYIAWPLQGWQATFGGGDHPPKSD

B1: MOG01 antibody (anti-MOG human IgG antibody expressed from N5LG4PE_MOG01) (antibody, V domains shown)
VH: QVQLQQSGAGLLKPSETLSLTCAVSGGSFSGYYWTWIRQRPGKGLEWIGEINHRGSTDYNPSLKSRVTMSIDTSKSQFSLNLKSVTAADTAVYYCARAAWGSCYDGTCYPAEYFQYWGQGTLVTVSS
VL: QSALTQPASVSGSPGQSITISCTGTSRDVGGYNYVSWYQQHPGKAPKLMIYDVNNRPSGVSNRFSGSKSGNTASLTISGLQAEDEADYFCSSYTSSSTPVVFGGGTKLTVL
notes: also called anti-MOG01 human IgG antibody; MOG01 IgG4PE
The Kd is the equilibrium constant for the complex coming apart. What is called koff is the rate constant with which the complex falls apart. In general, kon refers to the second-order rate constant of association. Take B1: the dissociation constant Kd in test [1] worked out at 6.6 nM. In addition, the koff in test [1] was 0.00095 s⁻¹. This molecule also had an on-rate constant (kon) in test [1] of 140000 M⁻¹ s⁻¹. Besides, the binding result in [2], in [3] and in [4] was “binds” in each case.

B2: AVM IgG4PE(R409K)_MOG01dscFv antibody (bispecific antibody)
heavy: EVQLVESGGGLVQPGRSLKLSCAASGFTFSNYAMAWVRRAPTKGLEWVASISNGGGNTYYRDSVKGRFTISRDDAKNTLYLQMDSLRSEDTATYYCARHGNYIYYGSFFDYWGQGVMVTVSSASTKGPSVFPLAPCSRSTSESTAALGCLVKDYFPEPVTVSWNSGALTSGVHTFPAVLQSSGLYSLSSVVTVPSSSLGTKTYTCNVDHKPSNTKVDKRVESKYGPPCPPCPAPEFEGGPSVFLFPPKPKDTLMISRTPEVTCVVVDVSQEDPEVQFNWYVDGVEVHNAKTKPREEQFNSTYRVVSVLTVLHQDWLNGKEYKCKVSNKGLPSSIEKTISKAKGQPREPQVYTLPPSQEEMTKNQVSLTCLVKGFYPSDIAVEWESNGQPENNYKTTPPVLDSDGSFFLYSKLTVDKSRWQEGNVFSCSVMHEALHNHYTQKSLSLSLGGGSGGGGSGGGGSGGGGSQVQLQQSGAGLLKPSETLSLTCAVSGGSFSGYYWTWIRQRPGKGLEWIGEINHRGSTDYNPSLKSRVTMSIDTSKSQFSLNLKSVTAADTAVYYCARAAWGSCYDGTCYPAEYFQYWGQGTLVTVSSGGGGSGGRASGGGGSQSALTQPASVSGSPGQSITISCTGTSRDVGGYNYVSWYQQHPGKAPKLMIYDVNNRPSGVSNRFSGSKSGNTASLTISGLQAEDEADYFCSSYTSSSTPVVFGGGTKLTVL
light: QFVLSQPNSVSTNLGSTVKLSCKRSTGNIGSNYVSWYQQHEGRSPTTMIYRDDKRPDGVPDRFSGSIDRSSDSALLTINNVQTEDEADYFCQSYSSGINIFGGGTKLTVLGQPKAAPSVTLFPPSSEELQANKATLVCLISDFYPGAVTVAWKADSSPVKAGVETTTPSKQSNNKYAASSYLSLTPEQWKSHRSYSCQVTHEGSTVEKTVAPTECS
notes: MOG01 scFv fused to the C-terminus of anti-AVM IgG; also called pCI-AVM-hLG4PE(R409K)_MOG01scFv
Turning to B2, in [5], the affinity, expressed as Kd, was 200 nM; the dissociation rate constant (koff) came out at 0.0046 s⁻¹; the kon amounted to 23000 M⁻¹ s⁻¹. Also, in [6], the Kd was 200 nM, the koff is 0.0049 s⁻¹ and the association rate constant (kon) was 24000 M⁻¹ s⁻¹.

B3: MOG01 scFv-hG4PE (Fc fusion)
chain: QVQLQQSGAGLLKPSETLSLTCAVSGGSFSGYYWTWIRQRPGKGLEWIGEINHRGSTDYNPSLKSRVTMSIDTSKSQFSLNLKSVTAADTAVYYCARAAWGSCYDGTCYPAEYFQYWGQGTLVTVSSGGGGSGGRASGGGGSQSALTQPASVSGSPGQSITISCTGTSRDVGGYNYVSWYQQHPGKAPKLMIYDVNNRPSGVSNRFSGSKSGNTASLTISGLQAEDEADYFCSSYTSSSTPVVFGGGTKLTVL
For B3, the Kd in [7] was 6.9 nM; in test [11] it was 3.6 nM. In addition, the figures for the koff in [8] and in test [9] were 0.015 s⁻¹ and 0.04 s⁻¹, respectively. The kon is 4.1e+06 M⁻¹ s⁻¹ in test [10] and 5.9e+06 M⁻¹ s⁻¹ in test [12].

B4: MOG14 antibody (anti-MOG human IgG antibody expressed from N5KG4PE_MOG14) (antibody, V domains shown)
VH: QVQLVQSGAEVKKPGASVKVSCQASGYTFTGDYIHWVRQAPGQGLEYLGWINPDRGFTYYTQKFQGRVTMTRDTSSNTAYMELSSLRSDDTAMYYCTRENPRAYFFDLWGQGTLVTVSS
VL: EIVLTQSPGTLSLSPGERATLSCRASQSISGSYVTWYQQKPGQAPRLLIYATSNRAIGIPDKFSGGGSGRDFTLTINRLEPEDFAVYYCQQSVSSPYTFGQGTKVEIK
B4 registered an equilibrium dissociation constant (Kd) in test [1] of 40 nM. This molecule also came in with an off-rate constant (koff) in test [1] of 0.00019 s⁻¹. The kon in [1] was determined as 4700 M⁻¹ s⁻¹. For the same molecule, the binding result in test [2], in test [3] and in [4] was “binds” throughout.

B5: MOG09 antibody (anti-MOG human IgG antibody expressed from N5LG4PE_MOG09) (antibody, V domains shown)
VH: QVQLQESGPGLVKSSETLSLTCAVSGHSISSAYYWGWIRQPPGKGLEWLGSIYHSGNTYYNPSLKSRVTISVDTSKNQFSLRLTSVTAADTAVYYCARGRGYSGYDSGMDVWGQGTTVTVSS
VL: SYVLTQPPSASGTPGQRVTISCSGTSSNIGINSVNWYQQLPGMAPKLVIYSRDQRPSGVPDRFSGSQSGTSASLAINGLQSEDEADYWCSTWDDSLNGWVFGGGTKLTVL
On to B5, for which the kon in test [1] is 9000 M⁻¹ s⁻¹. Moreover, the binding result in test [2], in test [3] and in [4] was “binds” each time. For the same molecule, in [13], the koff stood at 1.9e-07 s⁻¹. Also, in [14], the dissociation constant Kd amounted to 0.021 nM.

B6: iMOG-3Rim1-S32 antibody (VHH-Fc expressed from N5G4PEFc_iMOG-3Rim1-S32) (Fc fusion)
chain: QVQLVESGGGLVQTGGSLRLSCAASGSMFSTMGWFRQAPGNQRELVAIMSSGGTANYADSVKGRFTISGDNVKNTVTLQMNSLNPEDTAVYYCRFTGWVKSSFSTYWGQGTQVTVSS
notes: not shown: Fc region of human IgG4PE
For the molecule B6, the binding result in test [15] is “no binding (tested: 10 µg/mL)”.

The values above are taken from patent publication US20260092110A1 (Kyowa Kirin, published 2026).
